B1: CPEB3 Ribozyme (parent)
chain: GGGGGCCACAGCAGAAGCGUUCACGUCGCGGCCCCUGUCAGAUUCUGGUGAAUCUGCGAAUUCUGCUGU

Variants of: B1
Experiment: self-cleavage, relative activity (ratio to wild type); higher = more cleavage; co-transcriptional
GGGGGCCACAUCAGAAGCGUUCACGUCGCGGCCCCAGUCAGAUUCUGGUGAAUCUGCGAAUUCUGCUGU showed a self-cleavage of 0.164.
Work on GGGGGCCACAGAAGAAGCGUUCACGUCGCGGCCCCUGUCAGAUUCUGGUGCAUCUGCGAAUUCUGCUGU yielded a self-cleavage of 0.544.
For GGGGGCCACAGAAGAAGCGUUCACGUCGCGGCCCCUGUCAGAUUCUGGUGUAUCUGCGAAUUCUGCUGU, the self-cleavage was 0.628.
In the case of GGGGGCCACAUCAGAAGCGUUCACGUCGCGGCCCCUGUCAGAUUCUGGUGAAACUGCGAAUUCUGCUGU, the self-cleavage is reported as 0.562.
For GGGGGCCACAUCAGAAGCGUUCACGUCGCGGCCCCUGUCAGAUUCUGGUGAAUCUGCGAAUUCGGCUGU, the self-cleavage was 0.447.
Variant GGGGGCCACAUCAGAAGCGUUCACGUCGCGGCCCCUGUCAGAUUCUGGUGAAUCUGCGAAUUCCGCUGU has a self-cleavage of 0.498.
GGGGGCCACAUCAGAAGCGUUCACCUCGCGGCCCCUGUCAGAUUCUGGUGAAUCUGCGAAUUCUGCUGU gave a self-cleavage of 0.0857.
In the case of GGGGGCCACAGAAGAAGCGUUCACGUCGCGGCCCCUGUCAGAUUCUGGUGAAUCUGCGAAUUCUGUUGU, the self-cleavage is reported as 0.723.
With GGGGGCCACAGAAGAAGCAUUCACGUCGCGGCCCCUGUCAGAUUCUGGUGAAUCUGCGAAUUCUGCUGU the self-cleavage was 0.142.
For GGGGGCCACAGAAGAAGCUUUCACGUCGCGGCCCCUGUCAGAUUCUGGUGAAUCUGCGAAUUCUGCUGU, the self-cleavage was 0.111.
In the case of GGGGGCCACAUCAGAAGCGUUCACGUCGCGGCCCCUGUCAGUUUCUGGUGAAUCUGCGAAUUCUGCUGU, the self-cleavage is reported as 0.581.
GGGGGCCACAGAAGAUGCGUUCACGUCGCGGCCCCUGUCAGAUUCUGGUGAAUCUGCGAAUUCUGCUGU showed a self-cleavage of 0.27.
Variant GGGGGCCACAGAAAAAGCGUUCACGUCGCGGCCCCUGUCAGAUUCUGGUGAAUCUGCGAAUUCUGCUGU has a self-cleavage of 0.148.
Variant GGGGGCCACAGAAUAAGCGUUCACGUCGCGGCCCCUGUCAGAUUCUGGUGAAUCUGCGAAUUCUGCUGU has a self-cleavage of 0.13.
GGGGGCCACAGAAGAAGCGUUCACGUCGCGGCCCCUGUCAGUUUCUGGUGAAUCUGCGAAUUCUGCUGU showed a self-cleavage of 0.402.
With GGGGGCCACAGAAGAAGCGUUCACGUCGCGGCCCCUGUCAGAUUCUGGUGAAUCUGCGAAUUCUGCUGU the self-cleavage was 0.806.
With GGGGGCCACAUCAGAAGCGUUCACGUCGCGGCCCCUGUCAGAUUCUUGUGAAUCUGCGAAUUCUGCUGU the self-cleavage was 0.941.
For GGGGGCCACAUCAGAAGCGUUCACGUCGCGGCCCCUGUCAGAUUGUGGUGAAUCUGCGAAUUCUGCUGU, the self-cleavage was 0.772.
GGGGGCCACAUCAGAAGCGUUCACGUCGCGGCCCCUGUCAGAUUCUGGUGAAUCUGCGAAUUCUGCUAU gave a self-cleavage of 0.932.
GGGGGCCACAGAAGAAGCGUUCCCGUCGCGGCCCCUGUCAGAUUCUGGUGAAUCUGCGAAUUCUGCUGU gave a self-cleavage of 0.6.
GGGGGCCACAGAAGAAGCGUUCACGUCGAGGCCCCUGUCAGAUUCUGGUGAAUCUGCGAAUUCUGCUGU gave a self-cleavage of 0.121.
For GGGGGCCACAUCAGAAGCGUUCACGUCGCGGCCCCUGUCAGAUUCUGUUGAAUCUGCGAAUUCUGCUGU, the self-cleavage was 0.939.
GGGGGCCACAUCAGAAGCGUUCACGUCGCGGCCCCUGUCAGAUUCUGAUGAAUCUGCGAAUUCUGCUGU showed a self-cleavage of 0.917.
GGGGGCCACAGAAGAAGCGUUCACGUCGCGGCCCCUGUCAGAUUUUGGUGAAUCUGCGAAUUCUGCUGU gave a self-cleavage of 0.72.
In the case of GGGGGCCACAGAUGAAGCGUUCACGUCGCGGCCCCUGUCAGAUUCUGGUGAAUCUGCGAAUUCUGCUGU, the self-cleavage is reported as 0.15.
For GGGGGCCACAGAAGAAGAGUUCACGUCGCGGCCCCUGUCAGAUUCUGGUGAAUCUGCGAAUUCUGCUGU, the self-cleavage was 0.139.
GGGGGCCACAGAAGAAGCGUUCACGUCGCCGCCCCUGUCAGAUUCUGGUGAAUCUGCGAAUUCUGCUGU gave a self-cleavage of 0.194.
GGGGGCCACAUCAGAAGCGUUCACGUCGCGGCCCCUGUCAGAUUCUGGUGAUUCUGCGAAUUCUGCUGU gave a self-cleavage of 0.851.
Variant GGGGGCCACAUCAGAAGCGUUCACGUCGCGGCCCCUGUCAGAUUCUGGUGACUCUGCGAAUUCUGCUGU has a self-cleavage of 0.761.
For GGGGGCCACAGAAGAAGCGUUCACGUGGCGGCCCCUGUCAGAUUCUGGUGAAUCUGCGAAUUCUGCUGU, the self-cleavage was 0.171.
Variant GGGGGCCACAUCAGAAGCGUUCACGUCGCGGCCCCUGUCUGAUUCUGGUGAAUCUGCGAAUUCUGCUGU has a self-cleavage of 0.256.
Work on GGGGGCCACAGAAGAAGCGUUCACGUCGCGGCCCCUGUCAGAUUCUGGUGAAUUUGCGAAUUCUGCUGU yielded a self-cleavage of 0.688.
For GGGGGCCACAUCAGAAGCGUUCACGUCGCGGCCCCUGUCAGAUUCUGGUGCAUCUGCGAAUUCUGCUGU, the self-cleavage was 0.669.
Work on GGGGGCCACAGAAGAAGCGUUCACGUCACGGCCCCUGUCAGAUUCUGGUGAAUCUGCGAAUUCUGCUGU yielded a self-cleavage of 0.13.
GGGGGCCACAUCAGAAGCGUUCACGUCGCGGCCCCUGUCAGAUUCUGGUGAAUCUGCGAAUUAUGCUGU showed a self-cleavage of 0.418.
In the case of GGGGGCCACAUCAGAAGCGUUCACGUCGCGGCCCCUGUCAGAUUCUGGUAAAUCUGCGAAUUCUGCUGU, the self-cleavage is reported as 0.896.
GGGGGCCACAGAAGAAGCGUUCACGUCGCGGCCCGUGUCAGAUUCUGGUGAAUCUGCGAAUUCUGCUGU gave a self-cleavage of 0.189.
Work on GGGGGCCACAGAAGAAGCGUUCACUUCGCGGCCCCUGUCAGAUUCUGGUGAAUCUGCGAAUUCUGCUGU yielded a self-cleavage of 0.1.
Work on GGGGGCCACAGAAGAAGCGUUCACAUCGCGGCCCCUGUCAGAUUCUGGUGAAUCUGCGAAUUCUGCUGU yielded a self-cleavage of 0.155.
In the case of GGGGGCCACAUCAGAAGCGUUCACGUCGCGGCCCCUGUCAGAUUCUGGUGAAUCUGCGAGUUCUGCUGU, the self-cleavage is reported as 0.497.
Work on GGGGGCCACAUCAGAAGCGUUCACGUCGCGGCCCCUGUCAGAUUCUGGUGAAUCUGCGAUUUCUGCUGU yielded a self-cleavage of 0.281.
In the case of GGGGGCCACAUCAGAAGCGUUCACGUCGCGGCCCCUGUCAGAUUCUGGUGAAUCUGCGACUUCUGCUGU, the self-cleavage is reported as 0.234.
Variant GGGGGCCACAGAAGAAGCGUUCACGUCGCGGCCCCUGUCAGAUUCUGGUGAAUCUGCGACUUCUGCUGU has a self-cleavage of 0.264.
For GGGGGCCACAUCAGAAGCGUUCACGUCGCGGCCACUGUCAGAUUCUGGUGAAUCUGCGAAUUCUGCUGU, the self-cleavage was 0.694.
With GGGGGCCACAUCAGAAGCGUUCACGUCGCGGCCCCUGACAGAUUCUGGUGAAUCUGCGAAUUCUGCUGU the self-cleavage was 0.687.
Work on GGGGGCCACAUCAGAAGCGUUCACGUCGCGGCCCCUGGCAGAUUCUGGUGAAUCUGCGAAUUCUGCUGU yielded a self-cleavage of 0.178.
With GGGGGCCACAUCAGAAGCGUUCACGUCGCGGCCCAUGUCAGAUUCUGGUGAAUCUGCGAAUUCUGCUGU the self-cleavage was 0.16.
For GGGGGCCACAUCAGAGGCGUUCACGUCGCGGCCCCUGUCAGAUUCUGGUGAAUCUGCGAAUUCUGCUGU, the self-cleavage was 0.572.
In the case of GGGGGCCACAUCAAAAGCGUUCACGUCGCGGCCCCUGUCAGAUUCUGGUGAAUCUGCGAAUUCUGCUGU, the self-cleavage is reported as 0.131.
GGGGGCCACAGAAGAAGCGUUCACGUCGCGGCCCCUGUCAGAUUCUGGUGAAUCUGCGAAUUUUGCUGU gave a self-cleavage of 0.364.
GGGGGCCACAGAAGAAGCGUUCACGUCGCGGCCCCUGUCAGAUUCUGGUGAAUCUGCGAAUUAUGCUGU gave a self-cleavage of 0.336.
With GGGGGCCACAUCAGAAGCGUUCACGUCACGGCCCCUGUCAGAUUCUGGUGAAUCUGCGAAUUCUGCUGU the self-cleavage was 0.125.
Work on GGGGGCCACAUCAGAAGCGUUCACGGCGCGGCCCCUGUCAGAUUCUGGUGAAUCUGCGAAUUCUGCUGU yielded a self-cleavage of 0.635.
GGGGGCCACAUCAGAAGCGUUCACGUCGCUGCCCCUGUCAGAUUCUGGUGAAUCUGCGAAUUCUGCUGU gave a self-cleavage of 0.263.
With GGGGGCCACAUCAGAAGCGUUCACGUCGCGGCCCCUGUCAGACUCUGGUGAAUCUGCGAAUUCUGCUGU the self-cleavage was 0.768.
For GGGGGCCACAUCAGAAGCGUUCACGUCGCGGCCCCUGUCAGAUUCUGGUGAAUCUGCGAAUUCUACUGU, the self-cleavage was 0.682.
For GGGGGCCACACCAGAAGCGUUCACGUCGCGGCCCCUGUCAGAUUCUGGUGAAUCUGCGAAUUCUGCUGG, the self-cleavage was 0.97.
Variant GGGGGCCACAGAAGAAGCGUUCACGUCGCGGCUCCUGUCAGAUUCUGGUGAAUCUGCGAAUUCUGCUGU has a self-cleavage of 0.671.
For GGGGGCCACAUCAGGAGCGUUCACGUCGCGGCCCCUGUCAGAUUCUGGUGAAUCUGCGAAUUCUGCUGU, the self-cleavage was 0.779.
GGGGGCCACAUCAGCAGCGUUCACGUCGCGGCCCCUGUCAGAUUCUGGUGAAUCUGCGAAUUCUGCUGU showed a self-cleavage of 0.531.
With GGGGGCCACAUCAGAAGCGUUCACGUCGCGGCUCCUGUCAGAUUCUGGUGAAUCUGCGAAUUCUGCUGU the self-cleavage was 0.948.
Work on GGGGGCCACAUCAGAAGCGUUCACGUCGCGGCCCCUGUCAGAUUCUGGUGAAUUUGCGAAUUCUGCUGU yielded a self-cleavage of 0.819.
With GGGGGCCACAUCAGAAGCGUUCACGUCGCGGCCCCUGUCAGAUUCUGGUGAAUAUGCGAAUUCUGCUGU the self-cleavage was 0.361.
Variant GGGGGCCACAUCAGAAGCGUUCACGUCGCGGCCCCUGUCAGAUUCUGGUGAAUGUGCGAAUUCUGCUGU has a self-cleavage of 0.412.
GGGGGCCACAUCAGAAGCGUUCACGUCGCGGCCCCUGUCACAUUCUGGUGAAUCUGCGAAUUCUGCUGU gave a self-cleavage of 0.197.
GGGGGCCACAUCAGAAGCGUUCACGUCGCGGCCCCUGUCAGAUUCUGGUGAAUCUGCGUAUUCUGCUGU showed a self-cleavage of 0.395.
GGGGGCCACAUCAGAAGCGUUCACGUCGCGGCCCCUGUCAGAUUCUGGUGAAUCUGCGCAUUCUGCUGU gave a self-cleavage of 0.35.
For GGGGGCCACAGAAGAAGCGUUCACGUCGCGACCCCUGUCAGAUUCUGGUGAAUCUGCGAAUUCUGCUGU, the self-cleavage was 0.419.
For GGGGGCCACAUCAGAAGCGUUCACGUCGCGGCCCCUGUCAGAUUCUGGUGAAUCUGCGAACUCUGCUGU, the self-cleavage was 0.271.
Work on GGGGGCCACAUCAGAAGCGUUCACGUCGCGGACCCUGUCAGAUUCUGGUGAAUCUGCGAAUUCUGCUGU yielded a self-cleavage of 0.773.
With GGGGGCCACAUCAGAAGCGUCCACGUCGCGGCCCCUGUCAGAUUCUGGUGAAUCUGCGAAUUCUGCUGU the self-cleavage was 0.541.
Work on GGGGGCCACAUCAGAAGCGUGCACGUCGCGGCCCCUGUCAGAUUCUGGUGAAUCUGCGAAUUCUGCUGU yielded a self-cleavage of 0.196.
In the case of GGGGGCCACAUCAGAAGCGUUCACGUCGCGACCCCUGUCAGAUUCUGGUGAAUCUGCGAAUUCUGCUGU, the self-cleavage is reported as 0.746.
GGGGGCCACAUCAGAAGCGUUCACGUCGCGGCCCCUGUCAGAUUCUGGUGAAUCAGCGAAUUCUGCUGU gave a self-cleavage of 0.36.
In the case of GGGGGCCACAUCAGAAGCGUUCACGUCGCGGCCCCUGUCAGAUUCUGGUGAAUCCGCGAAUUCUGCUGU, the self-cleavage is reported as 0.302.
Variant GGGGGCCACAUCAGAAGCGUUCACGUCGCGGCCCCUGUCAGAUUCUGGUGAAUCUGCGAAUUCUGCUGC has a self-cleavage of 1.05.
Variant GGGGGCCACAGAAGAAGCGUUCACGUCGCGGCCUCUGUCAGAUUCUGGUGAAUCUGCGAAUUCUGCUGU has a self-cleavage of 0.834.
For GGGGGCCACAUCAGAAGCGUUCAAGUCGCGGCCCCUGUCAGAUUCUGGUGAAUCUGCGAAUUCUGCUGU, the self-cleavage was 0.308.

From the RNAGym collection of RNA variant scans (doi:10.7554/elife.80360)
